Results published in US12428633B2, “Inducible dimerization of recombinases” (TRUSTEES OF BOSTON UNIVERSITY, priority 2016, dated 2025).
Entries after “also recorded” stand apart in the source; their conditions may differ.

Assays:
[1] = test system: BUF logic reporters in HEK293FT; experiment: Recombinase activity, orthogonality and cross-reactivity on BUF logic reporters; format: cell-based, human; settings: transient transfection, dose-response (FIG. 8)
Procedure: FIG. 8A-8C show recombinase cross-reactivity dose-response profile of Cre, Dre, VCre and Vika. FIG. 8A is a summary of intended and unintended recombination of Cre, Dre, VCre and Vika site-specific recombinases.
(§1) DNA was transfected into the human embryonic kidney cell line (HEK293FT) using a polyethylenimine (PEI) protocol. Cells were plated onto 48-(2504) or 96-well (1004) plates the day prior to transfection (200,000 cells/mL), such that the cells were 50-70% confluent the day of transfection. Cells were kept in a humidified incubator at 37° C. and 5% CO2 and maintained in DMEM medium (Corning) with 10% Heat Inactivated Fetal Bovine Serum (Life Technologies), 50 U.I./mL penicillin/50 μg/mL streptomycin (Corning), 2 mM glutamine (Corning) and 1 mM sodium pyruvate (Lonza). […]
(§2) Two days post-transfection and after trypsinization (0.05% Trypsin/0.53 mM EDTA, Corning) and resuspension, all HEK293FT cell populations were analyzed using a Becton Dickinson (BD) LSRFortessa SORP flow cytometer with HTS, except for data in FIG. 5, which were recorded on a BD LSRII. Time-course data was achieved through trypsinization and fixation of cells at particular time points (BD Cytofix) and kept at 4° C. until analyzed through flow cytometry. […]

[2] = test system: 2-input BLADE decoder in HEK293FT cells; experiment: 4OHT- and ABA-inducible 2-input BLADE decoder; format: cell-based, human; settings: transient transfection, 4OHT 1 μM, ABA 100 μM
Procedure: as §1, with “(Lonza). PEI stocks were made from linear polyethylenimine (Polysciences 23966-2) and were dissolved at a concentration of 0.323 g/L in deionized water with the assistance of concentrated hydrochloric acid and sodium hydroxide and then filtered sterilized (0.24 μm). PEI stocks were stored at −80° C. until use and warmed to room temperature prior to usage.” for “(Lonza).”
as §2

| Molecule | Cross-reactivity on other recombinases' reporter constructs [1] | Leaky recombinase behavior on 2-input BLADE decoder [2] |
| --- | --- | --- |
| VCre: full-length tyrosine recombinase (SEQ ID NO: 16), recognizes VloxP (protein) MIENQLSLLGDFSGVRPDDVKTAIQAAQKKGINVAENEQFKAAFEHLLNEFKKREERYSPNTLRRLESAWTCFVDWCLANHRHSLPATPDTVEAFFIERAEELHRNTLSVYRWAISRVHRVAGCPDPCLDIYVEDRLKAIARKKVREGEAVKQASPFNEQHLLKLTSLWYRSDKLLLRRNLALLAVAYESMLRASELANIRVSDMELAGDGTAILTIPITKTNHSGEPDTCILSQDVVSLLMDYTEAGKLDMSSDGFLFVGVSKHNTCIKPKKDKQTGEVLHKPITTKTVEGVFYSAWETLDLGRQGVKPFTAHSARVGAAQDLLKKGYNTLQIQQSGRWSSGAMVARYGRAILARDGAMAHSRVKTRSAPMQWGKDEKD | showed cross-reactivity in a dose-dependent manner; also recorded: can recombine Vika's recombination sites |  |
| Cre: full-length tyrosine recombinase, recognizes loxP (protein) MSNLLTVHQNLPALPVDATSDEVRKNLMDMFRDRQAFSEHTWKMLLSVCRSWAAWCKLNNRKWFPAEPEDVRDYLLYLQARGLAVKTIQQHLGQLNMLHRRSGLPRPSDSNAVSLVMRRIRKENVDAGERAKQALAFERTDFDQVRSLMENSDRCQDIRNLAFLGIAYNTLLRIAEIARIRVKDISRTDGGRMLIHIGRTKTLVSTAGVEKALSLGVTKLVERWISVSGVADDPNNYLFCRVRKNGVAAPSATSQLSTRALEGIFEATHRLIYGAKDDSGQRYLAWSGHSARVGAARDMARAGVSIPEIMQAGGWTNVNIVMNYIRNLDSETGAMVRLLEDGD | showed cross-reactivity in a dose-dependent manner; also recorded: mutually cross-reactive |  |
| split Flp system: split Flp recombinase construct fused to ABA-binding domains ABI and PYL (SEQ ID NO: 38 and 39) (protein) chain 1: MSQFDILCKTPPKVLVRQFVERFERPSGEKIASCAAELTYLCWMITHNGTAIKRATFMSYNTIISNSLSFDIVNKSLQFKYKTQKATILEASLKKLIPAWEFTIIPYNGQKHQSDITDIVSSLQLQFESSEEADKGNSHSKKMLKALLSEGESIWEITEKILNSFEYTSRFTKTKTLYQFLFLATFINCGRFSDIKNVDPKSFKLVQNKYLGVIIQCLVTETKTSVSRHIYFFSARGRIDPLVYLDEFLRNSEPVLKRVNRTGNSSSNKQEYQLLKDNLVRSYNKALKKNAPYPIFAIKNGPKSHIGRHLMTSFLSMKGLTELTNVVGNWSDKRASAVARTTYTHQITAIPDHYFALVSRYYAYDPISKEMIALKDETNPIEEWQHIEQLKGSAEGSGGSGSGSSGGSGTPLYGFTSICGRRPEMEDAVSTIPRFLQSSSGSMLDGRFDPQSAAHFFGVYDGHGGSQVANYCRERMHLALAEEIAKEKPMLCDGDTWLEKWKKALFNSFLRVDSEIGSVAPETVGSTSVVAVVFPSHIFVANCGDSRAVLCRGKTALPLSVDHKPDREDEAARIEAAGGKVIQWNGARVFGVLAMSRSIGDRYLKPSIIPDPEVTAVKRVKEDDCLILASDGVWDVMTDEEACEMARKRILLWHKKNAVAGDASLLADERRKEGKDPAAMSAAEYLSKLAIQRGSKDNISVVVVDLKDYKDDDDKPKKKRKV chain 2: MAPTQDEFTQLSQSIAEFHTYQLGNGRCSSLLAQRIHAPPETVWSVVRRFDRPQIYKHFIKSCNVSEDFEMRVGCTRDVNVISGLPANTSRERLDLLDDDRRVTGFSITGGEHRLRNYKSVTTVHRFEKEEEEERIWTVVLESYVVDVPEGNSEEDTRLFADTVIRLNLQKLASITEAMNYPYDVPDYASGGSGSGSSGGSGTSIRYPAWNGIISQEVLDYLSSYINRRIPKKKRKV |  | minimal leaky recombinase behavior |
